# Measurements: patent US20250352661A1 (MYTHIC THERAPEUTICS, published 2025)
# Numbering of substitutions follows the chain as printed. Names may count otherwise.
# T1: Human LRRC15 Protein, His Tag (Acro Biosystems) (human, UniProt Q8TF66 22-538, limits assumed)
# T1 sequence (looked up): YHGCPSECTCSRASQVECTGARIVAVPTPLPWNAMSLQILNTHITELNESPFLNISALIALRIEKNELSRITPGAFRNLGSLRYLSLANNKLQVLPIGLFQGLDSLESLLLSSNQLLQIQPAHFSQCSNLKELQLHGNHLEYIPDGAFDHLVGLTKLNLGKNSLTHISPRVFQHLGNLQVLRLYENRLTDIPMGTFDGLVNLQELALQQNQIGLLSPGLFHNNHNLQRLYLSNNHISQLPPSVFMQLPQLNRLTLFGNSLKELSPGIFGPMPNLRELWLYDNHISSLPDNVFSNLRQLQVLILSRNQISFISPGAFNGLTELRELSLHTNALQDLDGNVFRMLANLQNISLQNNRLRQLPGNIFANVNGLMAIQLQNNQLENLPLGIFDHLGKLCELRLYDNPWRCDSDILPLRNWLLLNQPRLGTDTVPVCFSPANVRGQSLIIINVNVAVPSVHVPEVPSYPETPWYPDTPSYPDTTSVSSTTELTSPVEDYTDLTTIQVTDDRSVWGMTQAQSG
# T2: LRRC15 on LRRC15 positive cell lines SAOS2 and G292 (UniProt Q8TF66 22-581, limits assumed)
# T2 construct: whole, on cells
# T2 sequence (looked up): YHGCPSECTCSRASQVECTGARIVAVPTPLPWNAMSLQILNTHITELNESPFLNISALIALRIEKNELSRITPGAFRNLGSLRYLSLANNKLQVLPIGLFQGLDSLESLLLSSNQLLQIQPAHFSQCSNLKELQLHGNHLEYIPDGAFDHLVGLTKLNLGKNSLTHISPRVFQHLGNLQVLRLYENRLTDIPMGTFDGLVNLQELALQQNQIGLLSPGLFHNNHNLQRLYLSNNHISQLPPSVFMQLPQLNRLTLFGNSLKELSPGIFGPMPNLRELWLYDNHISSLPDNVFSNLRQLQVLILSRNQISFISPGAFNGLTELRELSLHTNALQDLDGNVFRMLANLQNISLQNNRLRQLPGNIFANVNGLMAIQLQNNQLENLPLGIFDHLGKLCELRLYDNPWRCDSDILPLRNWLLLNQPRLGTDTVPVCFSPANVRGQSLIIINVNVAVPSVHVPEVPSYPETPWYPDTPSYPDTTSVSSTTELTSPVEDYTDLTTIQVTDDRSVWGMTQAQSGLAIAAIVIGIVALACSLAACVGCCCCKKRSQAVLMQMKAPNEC
# T3: LRRC15 on the surface of LRRC15+ cells (SAOS-2, U87MG) (UniProt Q8TF66 22-581, limits assumed)
# T3 sequence (looked up): T2 sequence (looked up)
# B1: MYT6111 (antibody, V domains shown)
# VH: QEQLEESGGDLVKPGASLTLTCTASGLDFRRTNYICWVRQAPGKGLEWIGCIYIADVVHYYASWAKGRFTFSKTSSTTVTLQMTSLTAADTATYFCARGHDGGFVYGMDLWGPGTLVTVSS
# VL: DVVMTQTPASVSEPVGGTVTIKCQASQSIGNYLSWYQQKPGQRPKRLIYSASTLPSGVPSRFKGAGSGTEFTLTISDLESADAATYYCQNNYWLAGYGHPFGGGTEVVVK
# notes: chimeric rabbit 15G7 variant (rabbit variable domains, human constant regions); also called 15G7 VH A100H
# B2: MYT6113 (antibody, V domains shown)
# VH: B1 VH with H100A, G102H
# VL: B1 VL
# notes: chimeric rabbit 15G7 variant (rabbit variable domains, human constant regions); also called 15G7 VH G102H
# B3: MYT6116 (antibody, V domains shown)
# VH: B1 VH with H100A, V105H
# VL: B1 VL
# notes: chimeric rabbit 15G7 variant (rabbit variable domains, human constant regions); also called 15G7 VH V105H
# B4: MYT6121 (antibody, V domains shown)
# VH: B1 VH with H100A, L110H
# VL: B1 VL
# notes: chimeric rabbit 15G7 variant (rabbit variable domains, human constant regions); also called 15G7 VH L110H
# B5: MYT6112 (antibody, V domains shown)
# VH: B1 VH with H100A, D101H
# VL: B1 VL
# notes: chimeric rabbit 15G7 variant (rabbit variable domains, human constant regions); also called 15G7 VH D101H
# B6: MYT6118 (antibody, V domains shown)
# VH: B1 VH with H100A, G107H
# VL: B1 VL
# notes: chimeric rabbit 15G7 variant (rabbit variable domains, human constant regions); also called 15G7 VH G107H
# B7: MYT6115 (antibody, V domains shown)
# VH: B1 VH with H100A, F104H
# VL: B1 VL
# notes: chimeric rabbit 15G7 variant (rabbit variable domains, human constant regions); also called 15G7 VH F104H
# B8: MYT6114 (antibody, V domains shown)
# VH: B1 VH with H100A, G103H
# VL: B1 VL
# notes: chimeric rabbit 15G7 variant (rabbit variable domains, human constant regions); also called 15G7 VH G103H
# B9: MYT6120 (antibody, V domains shown)
# VH: B1 VH with H100A, D109H
# VL: B1 VL
# notes: chimeric rabbit 15G7 variant (rabbit variable domains, human constant regions); also called 15G7 VH D109H
# B10: MYT6119 (antibody, V domains shown)
# VH: B1 VH with H100A, M108H
# VL: B1 VL
# notes: chimeric rabbit 15G7 variant (rabbit variable domains, human constant regions); also called 15G7 VH M108H
# B11: MYT6117 (antibody, V domains shown)
# VH: B1 VH with H100A, Y106H
# VL: B1 VL
# notes: chimeric rabbit 15G7 variant (rabbit variable domains, human constant regions); also called 15G7 VH Y106H
# B12: MYT8483 (antibody, IgG1, V domains shown)
# VH: EVQLVESGGGLVQPGGSLRLSCTASGFSFSGSYWICWVRQAPGKGLEWVGCINGGSLDITYYASWAKGRFTISRDTSKNTVYLQKTSLRAEDTAVYYCASDTSYTAYGNFYFNLWGQGTLVTVSS
# VL: EIVMTQSPSPLSASVGDRVIITCQSSQSVLNNNWLAWYQQKPGKAPKLLIYDASSLASGVPSRFSGSGSGAEFTLTISSLQPDDFATYYCQGEFSCGSADCNAFGQGTKLTVL
# notes: Humanized 24D9; also called hu24D9; Parental
# B13: MYT8500 (antibody, V domains shown)
# VH: B12 VH with L57H
# VL: B12 VL
# notes: also called hu 24D9 HC Hydrophobicity Variant; hu24D9 HC Dev
# B14: MYT9776 (antibody, V domains shown)
# VH: B12 VH with S32H, N53H, L57H
# VL: B12 VL with T111E, V112I, L113K
# notes: LC EIK); also called hu24D9 HC Dev Combos, +LC FR4 EIK
# B15: MYT8094 (antibody, IgG1, V domains shown)
# VH: EVQLVESGGGLVQPGGSLRLSCTASGFSFSSSHWICWVRQAPGKGLEWVGCIYAGSIGSTYYASWAKGRFTISRDTSKNTVYLQMNSLRAEDTAVYYCARAPNDIYNYYFNLWGQGTLVTVSS
# VL: EIVMTQSPSTLSASVGDRVIITCQASENIYNYLAWYQQKPGKAPKLLIYYASTLASGVPSRFSGSGSGAEFTLTISSLQPDDFATYYCQSGYVSKSSTFGQGTKLTVL
# notes: Humanized 29F1; also called hu29F1 Parental; hu29F1
# B16: MYT9521 (antibody, V domains shown)
# VH: B15 VH
# VL: B15 VL with T53D
# notes: LC descriptor T66D; also called hu29F1 LC Asp Var
# B17: MYT9523 (antibody, V domains shown)
# VH: B15 VH
# VL: B15 VL with A55D
# notes: LC descriptor A68D; also called hu29F1 LC Asp Var
# B18: MYT9731 (antibody, V domains shown)
# VH: B15 VH
# VL: B15 VL with N28E
# notes: LC descriptor N28E; also called hu29F1 LC Glu Var
# B19: MYT8391 (antibody, V domains shown)
# VH: EVQLVESGGGLVQPGGSLRLSCTASGLDFRRTNYICWVRQAPGKGLEWVGCIYIADVVHYYASWAKGRFTFSRDTSKNTVYLQMNSLRAEDTAVYYCARGADGGFHYGMDLWGQGTLVTVSS
# VL: EIVMTQSPSTLSASVGDRVIITCQASQSIGNYLSWYQQKPGKAPKRLIYSASTLPSGVPSRFSGSGSGAEFTLTISSLQPDDFATYYCQNNYWLAGYGHPFGQGTKLTVL
# notes: Humanized 15G7 variant (HC descriptor V106H); also called hu 15G7 HC his variant; hu 15G7 HC his scan variant
# B20: MYT8416 (antibody, V domains shown)
# VH: B19 VH with H106V
# VL: B19 VL with W93H
# notes: Humanized 15G7 variant (LC descriptor W109H); also called hu 15G7 LC his variant
# B21: MYT8417 (antibody, V domains shown)
# VH: B19 VH with H106V
# VL: B19 VL with G96H
# notes: Humanized 15G7 variant (LC descriptor G112H); also called hu 15G7 LC his variant
# B22: MYT8415 (antibody, V domains shown)
# VH: B19 VH with H106V
# VL: B19 VL with Y92H
# notes: Humanized 15G7 variant (LC descriptor Y108H); also called hu 15G7 LC his variant
# B23: MYT2737-c-ADC (antibody, human IgG1, kappa, V domains shown)
# VH: EVQLVQSGAEVKKPGASVKVSCKASGYKFSSYWIEWVKQAPGQGLEWIGEILPGSDTTNYNEKFKDRATFTSDTSINTAYMELSRLRSDDTAVYYCARDRGNYRAWFGYWGQGTLVTVSS
# VL: DIQMTQSPSSLSASVGDRVTITCRASQDISNYLNWYQQKPGGAVKFLIYHTSRLHSGVPSRFSGSGSGTDYTLTISSLQPEDFATYFCQQGEALPWTFGGGTKVEIKR
# modifications: vcMMAE conjugated to the cysteine at position 205 of the light chain
# Target: T1, Human LRRC15 Protein, His Tag (Acro …)
# Assay: BLI; dissociation pH 7.4 black, pH 5.4 grey [2/2); D00007 FIG. 1E (2/2]
# Source text: For each individual plot, antigen binding proteins were captured on anti-human Fc biosensors and associated with LRRC15 at pH 7.4. Dissociation was at pH 7.4 (black) or pH 5.4 (grey). Major X-axis ticks=100 seconds, with left dashed vertical line=0 seconds. Major Y-axis ticks=0.5 nm and octet plots are shown MYT5712 and MYT6080-MYT6121.
# Multiple LRRC15-binding monoclonal antibodies have been described in the literature and can be used as a template for engineering pH-dependent binding. We selected discovery RabMAb clone 15G7 (rabbit VH SEQ ID NO: 378, rabbit VL SEQ ID NO: 451; humanized VH SEQ ID NO: 382, humanized VL SEQ ID NO: 455) as a LRRC15-binding monoclonal antibody for pH-engineering via histidine scanning. […] To generate pH-dependent sequence variants, individual amino acid residues within the heavy chain CDRs were systematically substituted with a histidine (or alanine if H was already present in a given position; e.g., MYT6099), one at a time (rabbit, MYT6080-6121). Desirable mutations were transferred to a humanized framework (humanized, MYT 8387-8411). After allowing for four days of protein expression, cell culture supernatants were collected, quantified by SDS-PAGE analysis, and the pH dependence of the variant was evaluated using biolayer interferometry (BLI) on an Octet RED 96e instrument. Briefly, cell culture supernatants were diluted based on qualitative expression level of the variant determined by visual examination of SDS-PAGE gels, 5 μL of cell culture supernatant was diluted into 195 μL of 1×PBST, pH 7.4 for high expressors, 25 μL of cell culture supernatant was diluted into 175 μL of 1×PBST, pH 7.4 for medium expressors and 100 μL of cell culture supernatant was diluted into 100 μL of 1×PBST, pH 7.4 for low expressors for loading onto the sensor tips.
row,binding result,Binder
1,binds,B1
2,binds,B2
3,binds,B3
4,binds,B4
5,binds,B5
6,no binding (tested: 50 nM LRRC15),B6
7,binds,B7
8,binds,B8
9,binds,B9
10,binds,B10
11,binds,B11

# Target: T2, LRRC15 on LRRC15 positive cell lines …
# Assay: cell binding on SAOS2 cells (LRRC15 positive), pH 7.4
# Design: unit not given here
row,Affinity,Binder
1,1.65,B12
2,1.22,B13
3,7.32,B14
4,1.71,B15
5,1.58,B16
6,0.817,B17
7,0.352,B18
8,0.483,B19
9,1.15,B20
10,0.554,B21
11,0.754,B22

# Target: T3, LRRC15 on the surface of LRRC15+ cells …
# Assay: cell-based or functional assay
row,Binder,20 nM Efficacy (cytotoxicity of candidates against SAOS-2 cells)
1,B23,20.2

# Target: T2, LRRC15 on LRRC15 positive cell lines …
# Assay: cell binding on G292 cells (LRRC15 positive), pH 7.4
# Design: unit not given here
row,Affinity,Binder
1,2.07,B12
2,2.21,B13
3,0.336,B19
4,1.37,B20
5,0.76,B21
6,1.11,B22
